# Results taken from the DeepSol protein solubility set.
# Assay: soluble on expression in E. coli; label from the status in PepcDB or PDB records
row,Sequence,soluble on expression in E. coli
1,MGSDKIHHHHHHMNFIEQISENNQFPIIFVGSGITQRYFENAPTWEKLLKDIWLELFDEESYYAKAFELRERFENNDFDIYTNLASLLEKEVSKAFINGNIQVDNLDLKTAYELNISPFKQLVANRFSNLKIREEKIEEIKQFSQMLSKARIIITTNYDNFIEECLKTINVSVKINVGNKGLFLKSSDYGELYKIHGTVDDASTITITKEDYEKNVTKSALINAKILSNLVESPILFLGYSLTDENIRKLLTDFAENSPFDISESAQKIGVVEYLPDSESIETVVSSLPDLSVYYSCLKTDNFTNIYRLISKINQGFLPSEIAKYENVFRKIIEVKGESKDLKTVLTSYEDLANLTEDEIRSKNIVVAFGDERYIYKFPDFKEYVRSYFLDKETIPQEIVIRFIATQPVASHLPIKKYMFAMSEYISKDSNKYTENIKKRLSKEEELSLDDFTSSIGVPLLHSKTLERQTEIVGILEADVPDNVRYNFIATHIKNFPKEELFLLVEKIIDEGIFETSRRRFLKAFDLLHY,not soluble
2,MSFAQQKLSELAVSIPGATKIFREYDLDFCCGGSVLLEVAAQQKNLNLAEIEKRLTDLQQSKAENNDKDWTSASYAEMIDHIITRFHNRHREQLPELITLAEKVENIHGDRDDCPIGVVAQLEKIYAELSQHLMKEEQILFPMIKMGNYAMASMPIRVMEMEHDEAGQDVEVIKSLTNNCTPPADACFSWKALYSGINEFIDDLMHHIHLENNILFPRVLNEK,not soluble
3,MKQGTMNILFFVLKTKLLKNGEAPVLMRITINGDYDDVRIQRSVPLNLWNAAKGCSKGRDRASVALNAYIAELHARALEKHKELVLEQALITPKLILKRVFGKDTEMRTLLGTMREGIKEMETLAGIDYSPVTINRYKNVVKKLQLLIPSYYGKEDVTFHELTPEFIRAFDIYLKTEAGLCRNTIVRYMKCFKKFTNMALAKEWMRKNPFYGYKMEQDETDPVFLTYDELQTVMKKKFTIPRLELVRDVFVFACFTGLAFSDVASLNKENLVQDNLGDWWIRKGRVKLEHRRKASSISNIPLLPVPLAILEKYKEHPTCIKKGCCLPVMCNQKMNSYLKEIADFCGIKKNLTTHVARHTFGTTVTLANNVPLQDVSVMLGHASTRMTQHYARVMNSSLKEAMNTVKERLAQ,not soluble
4,ISEFSDWQETLLEHLTQWVEAEIERDIAVDSHEESQRLLEATFNSPETFIGILDADGTLIRANETALGFIDADAADVCGEPFCETPWWNHDEAVANRCREAVERTRAGETVRFEAEHVGADGQRISTSVVARPVTAD,not soluble
5,MLEEEQALLEKVVETLSNDIEEKEEKIEKLRRSYTNGNGALANIYEDYRSGFKSGIGARPGR,not soluble
6,AHHHHHHGSRVLKSEGVSMLNTELLTTGVKGLDELLGGGVAKGVILQVYGPFATGKTTFAMQVGLLNEGKVAYVDTEGGFSPERLAQMAESRNLDVEKALEKFVIFEPMDLNEQRQVIARLKNIVNEKFSLVVVDSFTAHYRAEGSREYGELSKQLQVLQWIARRKNVAVIVVNQVYYDSNSGILKPIAEHTLGYKTKDILRFERLRVGVRIAVLERHRFRPEGGMVYFKITDKGLEDVKNED,soluble
7,ATDVAARGLDISGVTHVYNYDIPQDPESYVHRIGRTGRAGKEGMAITFVQPREMGYLRIVEETTKKRMQPLQAPTWDEAFAGQLRVATEKIQEAITEENLADYKTFANELLEKYDATDIAAAMLKMLAKEPDKTPVHITEERPLPSRGGGGYKGK,not soluble
8,MGHHHHHHSHDSLAEFKVPLILFSGGEPLLREDIFEIAGYAKKKGIKSVLSTNGTLIDRDMAENLKVFEYVGVSLDGVASTNDRFRGVEGAYERAFKGLLMASEVVLSGIRFTVSKYNYKDVFSLIELAREHEIPRFCLYHLVPSGRAEFKDDITNEQRRALLDNLLREAEKEGMEIMTVDNPADGIYTYLKLKEADSEKAEMALEFLKFRGGDSSGIRLANIDHQGNVHPNQFW,soluble
9,MHAIDFKEIQEKLSDGFRPWQRSFQFWARATDIYTGYKVFQLRMNFVKDVNKHEEMWERQHELAAHKVYSMCSDLGGFFLKIAQILGKPDLAPAAWVRKLVTLCDQAPATPFDAVRVVLEKELGKSIEQVFETFDEKPLGSASIAQVQHPGVEKLMMVDIRNLQIFALYMQKTDIKFDLFSMTKEIEKQIGYEFDFKREANAMEKIRRFLYDNNRKSPVLVPRVFPNLVTRKVLVMEFMNGIPILSLGDEMAKRGINPHGKMAEAAKFNILHSLSQAYGQMILKSGFFHADPHPGNILIGKGSEASHLLELGIATVAKCKNEQQELLQLAKTMFDTEMPPGTTTLQPFSEDSSIKKISVEAFPEELFSVLRTVVLLRGLSVGIGINYSCAQHWRAMAEEALHASGRLSTG,soluble
10,MASRVNIVQVQILDNPAMFVDKFKMEITFEVFEHLPHDLEWELVYVGSGTSRDFDQVLDSALVGPIPEGRHKFVFDAEHPDISKIPVEDIVGVSVLLLRCKYNDQEFINMGWFVANEYTDEELKENPPAKPLIEKLSRKIETEDLRVTTFPIRWTDEDPVAEPVDEEANKVFDEDDLMPLHDDGQDDDEEEEDDDETGPNTEEVDLNESFNERMANAHDGTEQKNGEESMEHDGASGDVEMGDKH,soluble
11,MHSDEEIFKDTTTKALLQLLKKDIDFHEYCYQEIFPRGKEIKMNDNKNFKIYLVESGYFAYCLKNEYGDFGIISFVGGEIAINLIPLIKEEPEDAFLRCLTQVRCWVLDPDFVGRVLDENNQKAKFLLSNLLYTRKVYFKASKRTFMKKELRIRACLKEIGLYMGRVTKDKDFILPDEINNSILAQYANTTREYTNIIVLKLRKEGILDDSHKPWVIKKIDEL,not soluble
12,MADLLDKIMGSSSSNRIPKRDNRMNQDKDEPTSKRSAPMFSTPKSTTPIGRDSFATMDTMNVQMNMFPVDIKDMPHKIQRFQVDVIVCSSNGKQINANLGVLAAKGDVNSHNRRLAQYYIMRTVHDKLLVKFSGKSHHFLAYDCAATLYLPEGVYTGDDQEEVTLTIDDFPKEEWKFVSKLSRRKDDSYLVVLKPAGFVYTQGEVAQEEANRMELTRIIEIVTSQKLNNEDYLQFGNATFPRLSPPHSEPDAISEIRSGFAKVSRLSQNGGGKAFMTVDTKISPFYKDTSVIKFSSNKLSEMKGGGGGRGGYGRSDSRDSRGGYRGGRSDSRDFRGVYGNRGGNDRYRDESRGRRDMYDSRRDSGSSNGADYSPSDAAELEHAFGERGNTKRCIEEALKGLDVECTHLKGNLIRVSSIAENNAENTSFMMKDDKGEREVTVAEYFLLQYNIKLKYPRLPLVVSKRFKHESFFPMELLRIAPGQRIKVNKMSPTVQSAMTGRNASMPQHHVKLVQDILRDNLKLEQNKYMDAFGIKLMSTEPIQMTAKLLPPAQIKFKGQTYMPDMSRPAFRTQDKFVEPARIRKIGIVVFDNCIQMRQAEDFCDKLSNFCRDNGITVEKDSRDWSIRELNSSDSVAIQNLMKKWLDDRVDILVGIAREKKPDVHDILKYFEESIGLQTIQLCQQTVDKMMGGQGGRQTIDNVMRKFNLKCGGTNFFVEIPNAVRGKAVCSNNETLRKKLLEHVQFIGFEISHGASRTLFDRSRSQMDGEPSVVGVSYSLTNSTQLGGFTYLQTQKEYKLQKLDEFFPKCVRSYKEHSKTLPTRIVIYRVGAGEGNFNRVKEEVEEMRRTFDKIQPGYRPHLVVIIAQRASHARVFPSCISGNRATDQNIPSGTCVENVLTSYGYDEFILSSQTPLIGTVRPCKYTILVNDAKWSKNELMHLTYFRAFGHQVSYQPPSVPDVLYAAENLAKRGRNNYKIHQRYVNLQAVENRIIKDHSELINEDMREELAAAIVDEMSVAMNGMTIPKRNFWA,not soluble
13,MCLARSISRRENYKPLKSKVMTKRNVGRPPKNERADHCCMVRFTDTEFARFLTLFEQSGLQNRAAFIKARVFNETFRVIKVDRSLLDYYQKLTTLYGQFRSVGVNYNQTVVALKSNFTEKKAFAMLTKLEKLTLELAIIGGEIVQLTRKFQEKWQHRQ,not soluble
14,MGSDKIHHHHHHMSSDVQKGDNLETPGARDLLLQTASNIMREGDVVDISLSELSLRSGLNSALVKYYFGNKAGLLKALLDRDMENIVKSVDALLAKDDMSPEAKLRRHISKCIDTYYDYPYLNRLLMRLVRDSDEAEAKRIADQYLLPLHRAYNRFIGEGVKAGVFRPINPQLFYFTVTGAADRFFSARLVLKHCFDQDTLTEQLRDSYREHTVDFIMAGILAH,not soluble
15,MTKKELRAQIRQRNREMLAAENRERWSQSIIERIRRLDIFADAKRIGLYHALPDEPDLTGLLREYVQTKQLFIPRVEGDDIAFYAYTGEADLEAEGAYGIAEPTADAATAILPSSLDLLLVPGVAFDRKGSRMGRGKGYYDRFLPATQVRLIGVTFSYRLLEELPTDPWDRPMDGVITESETLFCLEHHHHHH,soluble
